Assay results: the nanobody polyreactivity screen of Harvey et al. (2022)

assay: yeast display, Sf9 membrane polyspecificity reagent, FACS + sequencing; frameworks hold sequencing errors
Outline: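 Nanobodies came from a synthetic yeast display library in Saccharomyces cerevisiae BJ5465, induced with galactose for 36–48 hours and stained for 1 hour at 4 °C with 10% biotinylated, detergent-solubilized Sf9 membrane reagent. Cells were enriched on streptavidin microbeads and then FACS-sorted, with low and high (top ~1%) gates set on anti-HA fluorescence for expression and streptavidin fluorescence for reagent binding. Each polyreactivity label reflects the gate a clone came from. Genes were amplified by colony PCR, sequenced by MiSeq 2 × 250 and filtered by CDR length.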

Sequence | polyreactivity (PSR sort gate)
QVQLVESGGGLVQAGGSLRLSCAASGSIFGYYAMGWYRQAPGKERELVAAITTRGGRTYYADSVKGRFTISRDNAKNTVYLQMNSLKPEDTAVYYCAARTGRGRYDYWGQGTQVTVSS | high polyreactivity
QVQLVESGGGLVQAGGSLRLSCAASGSIFGYYAMGWYRQAPGKERELVATITTRGARTYYADSVKGRFTISRDNAKNTVYLQMNSLKPEDTAVYYCAAYGYYNFGYYYWGQGTQVTVSS | high polyreactivity
QVQLVESGGGLVQAGGSLRLSCAASGSIFGYYAMGWYRQAPGKERELVAVITRDASTYYADSVKGRFTISRDNAKNTVDLQMNSLKPEDTAVYYCAADRWWRRSWVKLDYWGHGTQVTVSS | low polyreactivity
QVQLVESGGGLVQAGGSLRLSCAASGSIFGYYAMGWYRQAPGNERELVAAISRSGGSTYYADSVKGRFTISRDNAKNTVYLQMNSLKPEDTAVYYCAADDYPYGNYYWGQGTQVTVSS | high polyreactivity
QVQLVESGGGLVQAGGSLRLSCAASGSIFGYYGMGCYIQAPGKERELVAAISARGGSTYYADSVKGRFTISRDNAKNTVYFQMNRLKPEDTAVYYCAVRYPGSRYLISKNGYWGQGTQVTVSS | high polyreactivity
QVQLVESGGGLVQAGGSLRLSCAASGSIFGYYPMGWYRQAPGKERELVAAITSGGNTYYADSVKGRFTISRDNAKNTVYLQMNSLKPEDTAVYYCNAVWRTRDYDYWGQGTQVTVSS | low polyreactivity
QVQLVESGGGLVQAGGSLRLSCAASGSIFGYYTMGWYIQAPGKERELVARITRGGSTYYADSVKGRFTISRDNAKNTVYLQLNSLKPEDTAVYYCAARRVNAGWTYGLRGNYWGQGTQVTVSS | low polyreactivity
QVQLVESGGGLVQAGGSLRLSCAASGSIFHHNAMGWYRQAPGKERELVAAISSRSGNTYYADSVKGRFTISRDNAKNTVYLQMNSLKPEDTAVYYCAKAFRGHYWGQGTQVTVSS | high polyreactivity
QVQLVESGGGLVQAGGSLRLSCAASGSIFHIYAMGWYRQAPGKERELVAAMTYADSVKGRFTISRDNAKNTVYLQMNSLKPEDTAVYYCNADNWPRIHGSAYDYWGQGTQVTVSS | low polyreactivity
QVQLVESGGGLVQAGGSLRLSCAASGSIFHNYDMGLYRQAPGKEREMVADISRGGDTNYADSVKGRFTISRDNAKNTVYLQLNSLKPEDTAVYYCNATYWILDSPWWRETFAYWGQGTQVTVSS | low polyreactivity
QVQLVESGGGLVQAGGSLRLSCAASGSIFHPYTMGWYRQAPGKERELVAAISWSGGNTNYADSVKGRFTISRDNAKNTVYLQMNSLKPDDTAVYYCIKATNLSGGYDSWGLGTQVTVSS | low polyreactivity
QVQLVESGGGLVQAGGSLRLSCAASGSIFHRNAMGWYRQAPGKEREFVAAISWRGGSTYYADSVKGRFTISRDNAKNTVYLQMNSLKPEDTAVYYCAADPVGYYWSRRSEFYYWGQGTQVTVSS | high polyreactivity
QVQLVESGGGLVQAGGSLRLSCAASGSIFHRNAMGWYRQAPGKERELVATISSSTGSTNYADSVKGRFTISRDNAKNTVYLQMNSLKPEDTAVYYCAAAPHRHSWYYTRHPYFGMDYWGQGTQVTVSS | low polyreactivity
QVQLVESGGGLVQAGGSLRLSCAASGSIFHRYAMGWYRQAPGKERELVAAISRRGGSTYYADSVKGRFTISRDNAKNTVYLQMNSLIPVDTAVYYCNASLAGSSGRNRFEYWGQGTQVTVSS | high polyreactivity
QVQLVESGGGLVQAGGSLRLSCAASGSIFHWYAMGWYRQAPGKERELVAAISYSGASTYYADSVKGRFTISRDNAKITVYLQMNSLKPDDTAVYYCAAKVTGKGYYWGQGTQVTVSS | high polyreactivity
QVQLVESGGGLVQAGGSLRLSCAASGSIFHYNAMGWYRQAPGKERELVAAISWRGGTTYYADSVKGRFTISRDNAKNTVYLQMNSLKPEDTAVYYCNRAYVYTYQRRDYDYWGQGTQVTVSS | low polyreactivity
QVQLVESGGGLVQAGGSLRLSCAASGSIFIGYAMGWYRQAPGKERELVAAISNSGGRTYYADSVKGRFTISRDNAKNTVYLQMNSLKPEDTAVYYCNVAYRIPYRMDYWGQGTQVTVSS | high polyreactivity
QVQLVESGGGLVQAGGSLRLSCAASGSIFIHYAMGWYRQAPGKERELVAAISRTGSTYYADSVKGRFTISRDNAKNTVYLQMNSLKPEDTAVYYCAKRISTRRYDYWGQGTQVTVSS | low polyreactivity
QVQLVESGGGLVQAGGSLRLSCAASGSIFINNGMGWYRQAPGKERELVAAINGGDGSTYYADSVKGRFTISRDNAKNTVYLQMNSLKPEDTAVYYCAKDYTIGYTYQYDYWGQGTQVTVSS | low polyreactivity
QVQLVESGGGLVQAGGSLRLSCAASGSIFIPNAMGWYRQAPGKERELVAAISLSDTTTYYADSVKGRFTISRDNAKNTVYLQMNSLKPEDTAVYYCAADYWFYPTSPVMDYWGQGTQVTVSS | low polyreactivity
QVQLVESGGGLVQAGGSLRLSCAASGSIFIPYAMGWYRQAPGKERELVAAISGSGGSTYYADSVKGRFTISRDNAKNTVYLQMNSLKPEDTAVYYCNAVYRRSKYYFSQGYDYWGQGTQVTVSS | high polyreactivity

Sequence | polyreactivity (PSR sort gate)
QVQLVESGGGLVQAGGSLRLSCAASGSIFIPYAMGWYRQAPGKETELVAAISSSGSSYYADSVKGRFTISRDNAKNTVYLQMNSLKPEDTAVYYCAAERHYSYSSYDYWGQGTQVTVSS | low polyreactivity
QVQLVESGGGLVQAGGSLRLSCAASGSIFIRNAMGWYRQAPGKERELVAAISGSGSSTYYADSVKGRFTISRDNAKNTVYLQMNSLKPEDTSVYYCNTDRNHSYQYGGYDYWGQGTQVTVSS | low polyreactivity
QVQLVESGGGLVQAGGSLRLSCAASGSIFIRNAMGWYRQAPGKERELVAAITSRGGSRYYADSVKGRFTISRDNAKNTVYLQMNSLKPEDTSVYYCARRYYGLYDYWGQGTQVTVSS | low polyreactivity
QVQLVESGGGLVQAGGSLRLSCAASGSIFIRNAMGWYRQAPGKERELVAANSGSGSSTYYADSVKGRFTNSRDNAKNTVYLQMNSVKPEDTAVYYCNTDRTLSYQYGGYDYWGLGTQVTVSS | low polyreactivity
QVQLVESGGGLVQAGGSLRLSCAASGSIFISNAMGWYRQAPGKERELVAAISSSGGRTYYADSVKGRFTISRDNAKNTVYLQMNSLKPEDTAVYYCAVRGLYQGRRRYSSEYDYWGQGTQVTVSS | high polyreactivity
QVQLVESGGGLVQAGGSLRLSCAASGSIFITNAMGWYRQAPGKERELVAGITSGGSTYYADSVKGRFTISRDNAKNTFYLQMNSLKPEDTAVYYCAADGVTVTADEYDYWGHGTQVTVSS | low polyreactivity
QVQLVESGGGLVQAGGSLRLSCAASGSIFITNAMGWYRQAPGKERELVATITDSGGSTYYADSVKGRFTISRDNAKNTVYLQMNSLKPEDTAVYYGAKDRVYLTRVYHYDYWGQGTQVTVSS | low polyreactivity
QVQLVESGGGLVQAGGSLRLSCAASGSIFITYAMGWYRQAHGKERELVAAIRDSGDRTYYADSVKGRFTISRDNAKNTVYLQMNSLKPEDTAVYYCNKDIERYVRIYDSWGQGTQVTVSS | low polyreactivity
QVQLVESGGGLVQAGGSLRLSCAASGSIFITYAMGWYRQAPGKERELVAAIRDSGDRTYYADSVKGRFTISRDNAKKTVYLQMNSLKPEDTAVYYCAARIWTGRGRKLGYGYDYWGQGTQVTVSS | low polyreactivity
QVQLVESGGGLVQAGGSLRLSCAASGSIFITYAMGWYRQAPGKERELVAAIRDSGDRTYYADSVKGRFTISRDYAKNTVYLQMNSLKPEDTAVYYCNARWQEPLKYDYWGQGTQVTVSS | low polyreactivity
QVQLVESGGGLVQAGGSLRLSCAASGSIFITYAMGWYRQAPGKERELVAAIRRGGRTNYADSVKGRFTISRDNAKNTVYLQMNSLKPEDTAVYYCAAEFRTGWPYYPDYAYDYWGQGTQVTVSS | low polyreactivity
QVQLVESGGGLVQAGGSLRLSCAASGSIFITYDMGWYRQAPGKERELVAAISSVGRTTYADSVKGRFTISRDNAKNTVYLQMNSLKTEDTAVYYCAVVGRSSHNVRTYGYWGQGTQVTVTS | low polyreactivity
QVQLVESGGGLVQAGGSLRLSCAASGSIFIVYAMGWYRQAPGKERELVAAISWSGGSTYYADSVKGRFTISRDNAKNTVYLQMNSLNPEDTAVYYCDAKYTLPFRDVKYYSWGQGTQVTVSS | high polyreactivity
QVQLVESGGGLVQAGGSLRLSCAASGSIFIYNAMGWYRQAPGKERELVAAISSSGGSTYYADSVKGRFTISRDNAKNTVYLQMNSLKPEDTAVYYCAARTYYVRGLGGRPGMDYCGQGTQVTVSS | low polyreactivity
QVQLVESGGGLVQAGGSLRLSCAASGSIFIYNAMGWYRQAPGKERELVAAISSSGGSTYYADSVKGRFTISRDNAKNTVYLQMNSLNPEDTAVSYCAARTYYVRGLGGRPGMDYWGQGTQVTVSS | low polyreactivity
QVQLVESGGGLVQAGGSLRLSCAASGSIFKANGMGWYRQAPGKEREFVAAITRSGATTYYADSVKGRFTISRDNAKNTVYLQMNSLKPEDTAVYYCNVKAWRDLYYAGFDYWGQGTQVTVSS | low polyreactivity
QVQLVESGGGLVQAGGSLRLSCAASGSIFKDNAMGWYRQAPGKERELVAAITSGASTNYADSVKGRFTISRDNAKNTVYLQMNSLKPEVTAVYYCAAVLAGGVYWVVHYDYWGQGTQVTVSS | low polyreactivity
QVQLVESGGGLVQAGGSLRLSCAASGSIFKGNAMGCYRQAPWKESEMVAAISGGGGSTYYADSVKGRFTISRDNAKNTVYLQMYSLKPEDTAVYYCAARYYESPGDRSGFRYGYWGQGTQVTVSS | high polyreactivity
QVQLVESGGGLVQAGGSLRLSCAASGSIFKGNVMGWYRQAPGKERELVAAITWSGGSTYYADSVKGRFTISRDNAKNTVYLQMNSLKPEDTAVYYCNTDRYHRVDFDYWGQGTQVTVSS | high polyreactivity
QVQLVESGGGLVQAGGSLRLSCAASGSIFKGYAMGWYRQAPGKERELVAAISSSGGSTYYADSVKGRFTISRDNAKNTVYLQMNSLKPEDTAVYYCNTDRYYTYDYWGQGTQVTVSS | low polyreactivity
